Measurements: patent US20130157953A1, “TREATMENT OF CARDIAC CONDITIONS” (Zealand Pharma A/S, priority 2010, published 2013)
Numbered stars: 1 amine (or outer) side, 2 acyl side, 3 side chain; on linkers, the order of the positions; unused ones are H or OH. Square brackets hold non-standard residues; d marks the D form. Side chains are listed from the residue outwards. * marks the point of attachment. γGlu = O=C(O)[C@H](CCC(=O)[*:2])N[*:1]; Palmitoyl = CCCCCCCCCCCCCCCC(=O)*; Aib = CC(C)(N)C(=O)O

B1: Compound 203 (peptide)
peptide: H-HSQGTFTSDYSKYLDSKAAHDFVEWLK([γGlu-Palmitoyl])RA-NH2
SMILES: CCCCCCCCCCCCCCCC(=O)N[C@@H](CCC(=O)NCCCC[C@H](NC(=O)[C@H](CC(C)C)NC(=O)[C@H](Cc1c[nH]c2ccccc12)NC(=O)[C@H](CCC(=O)O)NC(=O)[C@@H](NC(=O)[C@H](Cc1ccccc1)NC(=O)[C@H](CC(=O)O)NC(=O)[C@H](Cc1c[nH]cn1)NC(=O)[C@H](C)NC(=O)[C@H](C)NC(=O)[C@H](CCCCN)NC(=O)[C@H](CO)NC(=O)[C@H](CC(=O)O)NC(=O)[C@H](CC(C)C)NC(=O)[C@H](Cc1ccc(O)cc1)NC(=O)[C@H](CCCCN)NC(=O)[C@H](CO)NC(=O)[C@H](Cc1ccc(O)cc1)NC(=O)[C@H](CC(=O)O)NC(=O)[C@H](CO)NC(=O)[C@@H](NC(=O)[C@H](Cc1ccccc1)NC(=O)[C@@H](NC(=O)CNC(=O)[C@H](CCC(N)=O)NC(=O)[C@H](CO)NC(=O)[C@@H](N)Cc1c[nH]cn1)[C@@H](C)O)[C@@H](C)O)C(C)C)C(=O)N[C@@H](CCCNC(=N)N)C(=O)N[C@@H](C)C(N)=O)C(=O)O
B2: Compound 207 (peptide)
peptide: H-H[Aib]QGTFTSDYSKYLDSK([γGlu-Palmitoyl])AARDFVAWLLRA-NH2
SMILES: CCCCCCCCCCCCCCCC(=O)N[C@@H](CCC(=O)NCCCC[C@H](NC(=O)[C@H](CO)NC(=O)[C@H](CC(=O)O)NC(=O)[C@H](CC(C)C)NC(=O)[C@H](Cc1ccc(O)cc1)NC(=O)[C@H](CCCCN)NC(=O)[C@H](CO)NC(=O)[C@H](Cc1ccc(O)cc1)NC(=O)[C@H](CC(=O)O)NC(=O)[C@H](CO)NC(=O)[C@@H](NC(=O)[C@H](Cc1ccccc1)NC(=O)[C@@H](NC(=O)CNC(=O)[C@H](CCC(N)=O)NC(=O)C(C)(C)NC(=O)[C@@H](N)Cc1c[nH]cn1)[C@@H](C)O)[C@@H](C)O)C(=O)N[C@@H](C)C(=O)N[C@@H](C)C(=O)N[C@@H](CCCNC(=N)N)C(=O)N[C@@H](CC(=O)O)C(=O)N[C@@H](Cc1ccccc1)C(=O)N[C@H](C(=O)N[C@@H](C)C(=O)N[C@@H](Cc1c[nH]c2ccccc12)C(=O)N[C@@H](CC(C)C)C(=O)N[C@@H](CC(C)C)C(=O)N[C@@H](CCCNC(=N)N)C(=O)N[C@@H](C)C(N)=O)C(C)C)C(=O)O
B3: Compound 206 (peptide)
peptide: H-H[Aib]QGTFTSDYSKYLDSK([γGlu-Palmitoyl])AAHDFVEWLLRA-NH2
SMILES: CCCCCCCCCCCCCCCC(=O)N[C@@H](CCC(=O)NCCCC[C@H](NC(=O)[C@H](CO)NC(=O)[C@H](CC(=O)O)NC(=O)[C@H](CC(C)C)NC(=O)[C@H](Cc1ccc(O)cc1)NC(=O)[C@H](CCCCN)NC(=O)[C@H](CO)NC(=O)[C@H](Cc1ccc(O)cc1)NC(=O)[C@H](CC(=O)O)NC(=O)[C@H](CO)NC(=O)[C@@H](NC(=O)[C@H](Cc1ccccc1)NC(=O)[C@@H](NC(=O)CNC(=O)[C@H](CCC(N)=O)NC(=O)C(C)(C)NC(=O)[C@@H](N)Cc1c[nH]cn1)[C@@H](C)O)[C@@H](C)O)C(=O)N[C@@H](C)C(=O)N[C@@H](C)C(=O)N[C@@H](Cc1c[nH]cn1)C(=O)N[C@@H](CC(=O)O)C(=O)N[C@@H](Cc1ccccc1)C(=O)N[C@H](C(=O)N[C@@H](CCC(=O)O)C(=O)N[C@@H](Cc1c[nH]c2ccccc12)C(=O)N[C@@H](CC(C)C)C(=O)N[C@@H](CC(C)C)C(=O)N[C@@H](CCCNC(=N)N)C(=O)N[C@@H](C)C(N)=O)C(C)C)C(=O)O
B4: Compound 213 (peptide)
peptide: H-H[Aib]QGTFTSDYSKYLDSKAAK([γGlu-Palmitoyl])DFVAWLLRA-NH2
SMILES: CCCCCCCCCCCCCCCC(=O)N[C@@H](CCC(=O)NCCCC[C@H](NC(=O)[C@H](C)NC(=O)[C@H](C)NC(=O)[C@H](CCCCN)NC(=O)[C@H](CO)NC(=O)[C@H](CC(=O)O)NC(=O)[C@H](CC(C)C)NC(=O)[C@H](Cc1ccc(O)cc1)NC(=O)[C@H](CCCCN)NC(=O)[C@H](CO)NC(=O)[C@H](Cc1ccc(O)cc1)NC(=O)[C@H](CC(=O)O)NC(=O)[C@H](CO)NC(=O)[C@@H](NC(=O)[C@H](Cc1ccccc1)NC(=O)[C@@H](NC(=O)CNC(=O)[C@H](CCC(N)=O)NC(=O)C(C)(C)NC(=O)[C@@H](N)Cc1c[nH]cn1)[C@@H](C)O)[C@@H](C)O)C(=O)N[C@@H](CC(=O)O)C(=O)N[C@@H](Cc1ccccc1)C(=O)N[C@H](C(=O)N[C@@H](C)C(=O)N[C@@H](Cc1c[nH]c2ccccc12)C(=O)N[C@@H](CC(C)C)C(=O)N[C@@H](CC(C)C)C(=O)N[C@@H](CCCNC(=N)N)C(=O)N[C@@H](C)C(N)=O)C(C)C)C(=O)O
B5: Compound 208 (peptide)
peptide: H-H[Aib]QGTFTSDYSKYLDSK([γGlu-Palmitoyl])AAHDFVEWLLSA-NH2
SMILES: CCCCCCCCCCCCCCCC(=O)N[C@@H](CCC(=O)NCCCC[C@H](NC(=O)[C@H](CO)NC(=O)[C@H](CC(=O)O)NC(=O)[C@H](CC(C)C)NC(=O)[C@H](Cc1ccc(O)cc1)NC(=O)[C@H](CCCCN)NC(=O)[C@H](CO)NC(=O)[C@H](Cc1ccc(O)cc1)NC(=O)[C@H](CC(=O)O)NC(=O)[C@H](CO)NC(=O)[C@@H](NC(=O)[C@H](Cc1ccccc1)NC(=O)[C@@H](NC(=O)CNC(=O)[C@H](CCC(N)=O)NC(=O)C(C)(C)NC(=O)[C@@H](N)Cc1c[nH]cn1)[C@@H](C)O)[C@@H](C)O)C(=O)N[C@@H](C)C(=O)N[C@@H](C)C(=O)N[C@@H](Cc1c[nH]cn1)C(=O)N[C@@H](CC(=O)O)C(=O)N[C@@H](Cc1ccccc1)C(=O)N[C@H](C(=O)N[C@@H](CCC(=O)O)C(=O)N[C@@H](Cc1c[nH]c2ccccc12)C(=O)N[C@@H](CC(C)C)C(=O)N[C@@H](CC(C)C)C(=O)N[C@@H](CO)C(=O)N[C@@H](C)C(N)=O)C(C)C)C(=O)O
B6: Compound 262 (peptide)
peptide: H-HSQGTFTSDYSKYLDSK([γGlu-Palmitoyl])AAHDFVEWLLRA-NH2
SMILES: CCCCCCCCCCCCCCCC(=O)N[C@@H](CCC(=O)NCCCC[C@H](NC(=O)[C@H](CO)NC(=O)[C@H](CC(=O)O)NC(=O)[C@H](CC(C)C)NC(=O)[C@H](Cc1ccc(O)cc1)NC(=O)[C@H](CCCCN)NC(=O)[C@H](CO)NC(=O)[C@H](Cc1ccc(O)cc1)NC(=O)[C@H](CC(=O)O)NC(=O)[C@H](CO)NC(=O)[C@@H](NC(=O)[C@H](Cc1ccccc1)NC(=O)[C@@H](NC(=O)CNC(=O)[C@H](CCC(N)=O)NC(=O)[C@H](CO)NC(=O)[C@@H](N)Cc1c[nH]cn1)[C@@H](C)O)[C@@H](C)O)C(=O)N[C@@H](C)C(=O)N[C@@H](C)C(=O)N[C@@H](Cc1c[nH]cn1)C(=O)N[C@@H](CC(=O)O)C(=O)N[C@@H](Cc1ccccc1)C(=O)N[C@H](C(=O)N[C@@H](CCC(=O)O)C(=O)N[C@@H](Cc1c[nH]c2ccccc12)C(=O)N[C@@H](CC(C)C)C(=O)N[C@@H](CC(C)C)C(=O)N[C@@H](CCCNC(=N)N)C(=O)N[C@@H](C)C(N)=O)C(C)C)C(=O)O

Legend:
[1] = molecular target: human glucagon receptor (Glucagon-R) (human, UniProt P47871 26-477); assay: cell-based or functional assay
[2] = molecular target: human glucagon-like peptide 1 receptor (GLP-1R) (human, UniProt P43220 24-463); assay: cell-based or functional assay

Chain of human glucagon receptor (Glucagon-R) (P47871 26-477): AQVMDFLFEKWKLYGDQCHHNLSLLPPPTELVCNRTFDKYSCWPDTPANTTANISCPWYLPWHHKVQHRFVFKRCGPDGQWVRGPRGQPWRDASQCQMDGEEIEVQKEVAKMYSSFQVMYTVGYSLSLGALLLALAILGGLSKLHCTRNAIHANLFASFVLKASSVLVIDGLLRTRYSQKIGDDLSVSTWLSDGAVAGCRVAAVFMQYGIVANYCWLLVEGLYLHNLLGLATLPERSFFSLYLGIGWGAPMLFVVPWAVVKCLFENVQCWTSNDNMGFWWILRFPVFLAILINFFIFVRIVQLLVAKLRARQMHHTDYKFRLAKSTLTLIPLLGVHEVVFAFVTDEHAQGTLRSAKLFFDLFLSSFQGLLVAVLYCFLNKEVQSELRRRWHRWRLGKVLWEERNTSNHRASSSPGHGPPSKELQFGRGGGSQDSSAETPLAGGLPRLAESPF

Binder	EC50 (nM) GuR; cAMP content, HEK293 cells expressing the human glucagon receptor [1]	EC50 (nM) GLP-1R; cAMP content, HEK293 cells expressing human GLP-1R [2]
B1	0.22 nM	0.57 nM
B2	0.17 nM	0.12 nM
B3	0.16 nM	0.09 nM
B4	0.63 nM	0.15 nM
B5	0.16 nM	0.11 nM
B6	0.12 nM	0.11 nM
